Assay results taken from patent publication EP4778937A1.
Changes are numbered by the printed parent chain.

T1: CD155 (labelled CD155 molecule / CD155 antigen of Example 2) (UniProt P15151)
T1 sequence (labelled for flow cytometry, label not stated, looked up): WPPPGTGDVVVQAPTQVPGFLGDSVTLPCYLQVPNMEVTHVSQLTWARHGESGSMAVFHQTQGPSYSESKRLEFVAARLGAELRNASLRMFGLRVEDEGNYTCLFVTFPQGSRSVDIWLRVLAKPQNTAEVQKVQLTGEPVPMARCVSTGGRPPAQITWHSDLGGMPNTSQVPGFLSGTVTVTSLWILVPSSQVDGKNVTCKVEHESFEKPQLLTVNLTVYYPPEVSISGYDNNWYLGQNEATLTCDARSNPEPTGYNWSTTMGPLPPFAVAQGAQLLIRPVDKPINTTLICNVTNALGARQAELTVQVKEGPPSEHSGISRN

B1: CAR6 (TIGIT mutant peptide Mut6-CD28TM-28Z) (receptor)
chain: MMTGTIETTGNISAEKGGSIILQCHLSSTTAQVTQVNWEQQDQLLAIWNADLGWHISPSFKDRVAPGPGLGLTLQSLTVNDTGEYFCIYHTYPDGTYTGRIFLEVLESSVAEHGARFQIPFWVLVVVGGVLACYSLLVTVAFIIFWVRSKRSRGGHSDYMNMTPRRPGPTRKHYQPYAPPRDFAAYRSRVKFSRSADAPAYKQGQNQLYNELNLGRREEYDVLDKRRGRDPEMGGKPRRKNPQEGLYNELQKDKMAEAYSEIGMKGERRRGKGHDGLYQGLSTATKDTYDALHMQALPPR
B2: CAR30 (wild-type TIGIT polypeptide-CD28TM-28Z) (receptor)
chain: B1 chain with W48C

Assays:
[1] = target: CD112 on MDA-MB-231-Luc-GFP and MDA-MB-231-CD155(-)-Luc-GFP cells (human) (UniProt Q92692); assay: flow cytometry of MDA-MB-231-Luc-GFP cells stained with the antibody, control incubated with PBS
[2] = target: CD112 (labelled CD112 molecule / CD112 antigen of Example 2) (UniProt Q92692); assay: flow cytometry, labelled CD112 on CAR-CHO cells; MFI of CD112-positive cells / MFI of TIGIT-positive cells
[3] = target: T1, CD155 (labelled CD155 molecule / CD155 antigen of Example 2); assay: flow cytometry, labelled CD155 on CAR-CHO cells; MFI of CD155-positive cells / MFI of TIGIT-positive cells

Row | Molecule | MFI, fold over the control group [1] [fold] | relative MFI of CD112 (CD112/TIGIT) [2] | relative MFI of CD155 (CD155/TIGIT) [3]
1 | CD112 (Nectin2) Monoclonal Antibody (R2.525) PE | 4 | – | –
2 | B1 | – | 0.13 | 1.34
3 | B2 | – | 0.16 | 1.03
